Patent US20260069656A1, “Nutritive Polypeptides and Formulations Thereof, and Methods of Production and Use Thereof” (Axcella Health Inc., priority 2013, published 2026)

Key:
[1] = tested on: kinase activity of SEQID-00338 (AMP + ATP→2ADP); test: Kinase activity of SEQID-00338 and mutants, ADP-Glo Max Assay; format: biochemical; conditions: 7 μg/mL, 30 minute reaction at 30° C.; N=2
Description: Determination of the kinase activity of SEQID-00338. The ADP-Glo™ Max Assay was obtained from Promega (Catalog number V7001, Madison, WI). Adenosine Monophosphate was obtained from Sigma-Aldrich (Catalog number A1752, St. Louis, MO). 5× Kinase Buffer was prepared w/1.211 g Tris Base (Catalog number BP152-2, Fisher Bioreagents, Pittsburgh, PA), 692 μL 12% hydrochloric acid solution (Catalog number BDH3026-500MLP, VWR, Radnor, PA), 10.0 mL 500 mM magnesium chloride (Catalog number BP214-500, Fisher Bioreagents, Pittsburgh, PA) and the volume brought to 50 mL with MilliQ water and filtered through 0.22 μm PES filter (Catalog number SCGP00525, Millipore, Billerica, MA) into a sterile 50 mL tube.
Twelve his-tag purified mutant proteins and the wild-type protein at 35 μg/mL in Tris buffer were serially diluted to 7.0 and 1.4 μg/mL. Prepared kinase reaction mix at 0.5 mM AMP/0.5 mM ATP to test for activity and at 0 mM AMP/0 mM ATP to assay background activity by diluting 5× Kinase Buffer with appropriate volumes of 10 mM AMP and 10 mM ATP in MilliQ water. Duplicate reactions were prepared by mixing 9 μL of the reaction mixture with 6 μL of diluted SEQID-00338, mixing by pipetting up and down and dispensing 5 μL into a 384-well white OptiPlate (PerkinElmer, Waltham, MA). An ADP standard curve was prepared by serially diluting 4 mM ADP in MilliQ water and adding kinase buffer to 1× for a standard at 0.0005, 0.001, 0.005, 0.01, 0.05, 0.1, 1.5, 1, 2, 3, and 4 mM ADP. The plate was covered with a foil plate seal and incubated at 30° C. for 30 min. Following the kinase reaction, 5 μL of ADP-Glo™ Reagent was added to each well. The plate was sealed with a foil plate seal and placed on a horizontal plate shaker at 450 rpm for 2 minutes at room temperature. The plate was removed from the plate shaker and incubated at room temperature for 40 minutes. The plate was then centrifuged for 15 seconds at 1109× rcf and 10 μL of ADP-Glo™ Max Detection Reagent was added. The plate was sealed with a foil plate seal and shaken on a horizontal plate shaker at 450 rpm at room temperature for 2 minutes. The plate was then removed from the plate shaker and incubated at room temperature for 60 minutes. The plate was centrifuged for 15 seconds at 1109× rcf and the luminescence read on an EnspireAlpha plate reader (PerkinElmer, Waltham, MA).
The ADP standard curve was used to determine the concentration of ADP in sample wells in the presence or absence of substrate. Concentrations were determined by performing a non-linear 4 parameter logistic on the X=log(X) transformed ADP standard luminescence values. […] Where the background concentration of ADP in the absence of substrate was calculable the average of those values were subtracted from the calculated ADP concentration in the substrate incubated wells. Activity knock out was calculated by percentage activity relative to purified wild-type protein at the same concentration.

[2] = SGF digest of the 168 nutritive polypeptide library, intact protein by LC-MS/MS spectral counts; format: in vitro ADME; conditions: proteins detected in the 168 nutritive polypeptide library
Description: Nutritive polypeptide intact half-life determination in a complex mixture. The in vitro intact half-life of multiple polypeptides in a complex mixture was determined using the simulated gastric in vitro digestion described above. Briefly, the 168 nutritive polypeptide library was generated as described herein by cloning, transforming, and expressing a gene library encoding 168 proteins as a single mixture. The recombinantly expressed proteins were purified from host cell proteins by IMAC purification as described herein.
The 168 Protein Library was treated with SGF as described above and the t=0 and t=10 min samples were analyzed for intact protein by LC-MS/MS. To begin, 10 μg of sample was loaded onto a 10% SDS-PAGE gel (Invitrogen) and run approximately 5 cm into the gel. The gel was excised into ten fractions from 100 kD to the dye front and the gel slices were processed by washing with 25 mM ammonium bicarbonate, followed by acetonitrile. Gel fractions were then reduced with 10 mM dithiothreitol at 60° C., followed by alkylation with 50 mM iodoacetamide at room temperature. Finally, the samples were digested with trypsin (Promega) at 37° C. for 4 h and the digestions were quenched with the addition of formic acid. The samples were then analyzed by nano LC/MS/MS using an EasynLC 1000 HPLC system interfaced to a ThermoFisher Q Exactive. Peptides were loaded on a trapping column and eluted over a 75 μm analytical column at 350 nL/min; both columns were packed with PepMap C18 3 μm resin (ThemoFisher). A 1 hour gradient was employed. The mass spectrometer was operated in data-dependent mode, with MS and MS/MS performed in the Orbitrap at 70,000 FWHM resolution and 17,500 FWHM resolution, respectively. The fifteen most abundant ions were selected for MS/MS. Data were searched against an appropriate database using Mascot to identify peptides. Mascot DAT files were parsed into the Scaffold software for validation, filtering and to create a nonredundant list per sample. Data were filtered at 1% protein and peptide false discovery rate (FDR) and requiring at least two unique peptides per protein. A full list of detected proteins and their spectral counts (SpC) was generated and reported as a function of each collected gel fraction. SpC are a count of the number of spectra identified for a given protein and are used as a measure of relative protein abundance (Liu, H. et al., Analytical Chemistry 2004, 76:4193-4201). To calculate the percentage of intact protein remaining at the 10 min time point of the SGF digest the number of SpC representative of intact peptide in the t=10 min sample were divided by the number of SpC representative of intact peptide in the t=0 min sample. The number of SpC representative of intact peptide was defined as the sum of the SpC in the fraction with the highest number of SpC assigned to that protein in the t=0 min sample and the two flanking fractions.

[3] = Intact half-life during simulated gastric fluid (SGF) digestion
Description: Nutritive polypeptide half-life during simulated digestion. One metric for quantifying the breakdown of polypeptides from an intact form to smaller peptides is the intact half-life. In this experiment the nutritive polypeptide was exposed to a series of proteases that are active in the stomach (pepsin) and intestine (trypsin and chymotrypsin), and the presence of intact protein was measured over time. Specifically, the nutritive polypeptide was first treated at a concentration of 2 g/L with simulated gastric fluid (SGF) (0.03 M NaCl, titrated with HCl to pH 1.5 with a final pepsin: polypeptide ratio of 1:20 w/w) at 37° C. Time points were sampled from the reaction and quenched by addition of 0.2 M Na2CO3. […] Time points were sampled from the reaction and quenched by addition of Trypsin/Chymotrypsin Inhibitor (Sigma) solution until 240 min.
Time point samples were analyzed for intact protein by chip electrophoresis, polyacrylamide gel electrophoresis, or western blot. For chip electrophoresis (Labchip GX II), samples were analyzed using a HT Low MW Protein Express LabChip® Kit (following the manufacturer's protocol). A protein ladder was loaded every 12 samples for molecular weight determination (kDa) and quantification. For polyacrylamide gel electrophoresis, samples (1 μg) were separated on a NuPAGE® Novex® Bis-Tris Precast gel (Life Technologies) according to the manufacturer's protocol. The gel was stained using SimplyBlue™ SafeStain (Invitrogen) and imaged using a Chemidoc XRS+ (BioRad) or transferred onto nitrocellulose membranes using the iBlot® Dry Blotting System (Life Technologies) and iBlot® Western Detection Kit (Life Technologies) according to the manufacturer's protocol. Proteins were detected by blotting with Anti-His [C-term]-HRP antibody diluted 3:5000 in Blok™-PO Blocking Buffer using the SNAP i.d.® Protein Detection System (Millipore) according to the manufacturer's protocol. Blots were treated with Luminata Classico Western HRP Substrate (Millipore) according to the manufacturer's protocol and imaged using chemiluminescent detection on the Molecular Imager® Gel Doc™ XR+ System (Bio-Rad). Quantification of intact protein was determined by densitometry using ImageLab (BioRad). For all analysis methods the relative concentration of the polypeptide at each time point (if detected) was plotted overtime and fit to an exponential curve to calculate the intact half-life.
Specifically, the t=0 (enzyme-free control) and t=2 min samples from the SGF digest were analyzed for intact protein as described by chip electrophoresis, SDS-PAGE, western blot, and/or LC-MS/MS. Relative quantities of polypeptides at each time point were determined and the percentage of intact protein remaining at t=2 was determined.

Molecule	AVG proportion activity, percentage AMP + ATP→2ADP converted relative to wild-type [1] [%]	further results
R42G: single amino acid mutant of SEQID-00338 at substrate binding position 42 (protein, listed as Saccharomyces cerevisiae, strain ATCC 204508 / S288c) MSSSESIRMVLIGPPGAGKGTQAPNLQERFHAAHLATGDMLGSQIAKGTQLGLEAKKIMDQGGLVSDDIMVNMIKDELTNNPACKNGFILDGFPRTIPQAEKLDQMLKEQGTPLEKAIELKVDDELLVARITGRLIHPASGRSYHKIFNPPKEDMKDDVTGEALVQRSDDNADALKKRLAAYHAQTEPIVDFYKKTGIWAGVDASQPPATVWADILNKLGKD	1.2	–
R42T: single amino acid mutant of SEQID-00338 at substrate binding position 42 (protein, listed as Saccharomyces cerevisiae, strain ATCC 204508 / S288c) MSSSESIRMVLIGPPGAGKGTQAPNLQERFHAAHLATGDMLTSQIAKGTQLGLEAKKIMDQGGLVSDDIMVNMIKDELTNNPACKNGFILDGFPRTIPQAEKLDQMLKEQGTPLEKAIELKVDDELLVARITGRLIHPASGRSYHKIFNPPKEDMKDDVTGEALVQRSDDNADALKKRLAAYHAQTEPIVDFYKKTGIWAGVDASQPPATVWADILNKLGKD	1.9	–
D91I: single amino acid mutant of SEQID-00338 at magnesium ion binding site position 91 (protein, listed as Saccharomyces cerevisiae, strain ATCC 204508 / S288c) MSSSESIRMVLIGPPGAGKGTQAPNLQERFHAAHLATGDMLRSQIAKGTQLGLEAKKIMDQGGLVSDDIMVNMIKDELTNNPACKNGFILIGFPRTIPQAEKLDQMLKEQGTPLEKAIELKVDDELLVARITGRLIHPASGRSYHKIFNPPKEDMKDDVTGEALVQRSDDNADALKKRLAAYHAQTEPIVDFYKKTGIWAGVDASQPPATVWADILNKLGKD	0.4	–
D91F: single amino acid mutant of SEQID-00338 at magnesium ion binding site position 91 (protein, listed as Saccharomyces cerevisiae, strain ATCC 204508 / S288c) MSSSESIRMVLIGPPGAGKGTQAPNLQERFHAAHLATGDMLRSQIAKGTQLGLEAKKIMDQGGLVSDDIMVNMIKDELTNNPACKNGFILFGFPRTIPQAEKLDQMLKEQGTPLEKAIELKVDDELLVARITGRLIHPASGRSYHKIFNPPKEDMKDDVTGEALVQRSDDNADALKKRLAAYHAQTEPIVDFYKKTGIWAGVDASQPPATVWADILNKLGKD	0.9	–
R42I: single amino acid mutant of SEQID-00338 at substrate binding position 42 (protein, listed as Saccharomyces cerevisiae, strain ATCC 204508 / S288c) MSSSESIRMVLIGPPGAGKGTQAPNLQERFHAAHLATGDMLISQIAKGTQLGLEAKKIMDQGGLVSDDIMVNMIKDELTNNPACKNGFILDGFPRTIPQAEKLDQMLKEQGTPLEKAIELKVDDELLVARITGRLIHPASGRSYHKIFNPPKEDMKDDVTGEALVQRSDDNADALKKRLAAYHAQTEPIVDFYKKTGIWAGVDASQPPATVWADILNKLGKD	1.5	–
R42Q: single amino acid mutant of SEQID-00338 at substrate binding position 42 (protein, listed as Saccharomyces cerevisiae, strain ATCC 204508 / S288c) MSSSESIRMVLIGPPGAGKGTQAPNLQERFHAAHLATGDMLQSQIAKGTQLGLEAKKIMDQGGLVSDDIMVNMIKDELTNNPACKNGFILDGFPRTIPQAEKLDQMLKEQGTPLEKAIELKVDDELLVARITGRLIHPASGRSYHKIFNPPKEDMKDDVTGEALVQRSDDNADALKKRLAAYHAQTEPIVDFYKKTGIWAGVDASQPPATVWADILNKLGKD	1.2	–
R42K: single amino acid mutant of SEQID-00338 at substrate binding position 42 (protein, listed as Saccharomyces cerevisiae, strain ATCC 204508 / S288c) MSSSESIRMVLIGPPGAGKGTQAPNLQERFHAAHLATGDMLKSQIAKGTQLGLEAKKIMDQGGLVSDDIMVNMIKDELTNNPACKNGFILDGFPRTIPQAEKLDQMLKEQGTPLEKAIELKVDDELLVARITGRLIHPASGRSYHKIFNPPKEDMKDDVTGEALVQRSDDNADALKKRLAAYHAQTEPIVDFYKKTGIWAGVDASQPPATVWADILNKLGKD	2.2	–
R42L: single amino acid mutant of SEQID-00338 at substrate binding position 42 (protein, listed as Saccharomyces cerevisiae, strain ATCC 204508 / S288c) MSSSESIRMVLIGPPGAGKGTQAPNLQERFHAAHLATGDMLLSQIAKGTQLGLEAKKIMDQGGLVSDDIMVNMIKDELTNNPACKNGFILDGFPRTIPQAEKLDQMLKEQGTPLEKAIELKVDDELLVARITGRLIHPASGRSYHKIFNPPKEDMKDDVTGEALVQRSDDNADALKKRLAAYHAQTEPIVDFYKKTGIWAGVDASQPPATVWADILNKLGKD	1.7	–
SEQID-00610: protein of the 168 nutritive polypeptide library (protein, listed as Saccharomyces cerevisiae, strain ATCC 204508 / S288c, protein of the 168 nutritive polypeptide library) MVLEATVLVIDNSEYSRNGDFPRTRFEAQIDSVEFIFQAKRNSNPENTVGLISGAGANPRVLSTFTAEFGKILAGLHDTQIEGKLHMATALQIAQLTLKHRQNKVQHQRIVAFVCSPISDSRDELIRLAKTLKKNNVAVDIINFGEIEQNTELLDEFIAAVNNPQEETSHLLTVTPGPRLLYENIASSPIILEEGSSGMGAFGGSGGDSDANGTFMDFGVDPSMDPELAMALRLSMEEEQQRQERLRQQQQQQDQPEQSEQPEQHQDK	–	% Remaining at 10 min [2]: 3.3%; SGF Half-life (t½) ([3]; SGF pH 1.5, pepsin:polypeptide 1:20 w/w, 37° C., produced in E. coli unless otherwise noted): 24 s; Half-life ([3]; purified proteins, chip electrophoresis, SGF): 24 s
